The values that follow come from publication PMC8996150, “The structure of Synechococcus elongatus enolase reveals key aspects of phosphoenolpyruvate binding” (Acta Crystallographica. Section F, Structural Biology …, 2022).

Substrate in the series: O=C(O)[C@@H](CO)OP(=O)(O)O
The series is described as follows: purified protein. In kind it is biochemical, Synechococcus elongatus. The conditions noted are these: 100 mM HEPES pH 8.0, 100 mM KCl, 1.0 mM MgCl2, 30°C, dehydration direction.

B1: SeEN (Synechococcus elongatus enolase) (Synechococcus elongatus PCC 7942 = FACHB-805) (protein)
chain: MPDDYGTQIAEITAREILDSRGRPTVEAEVHLEDGSVGLAQVPSGASTGTFEAHELRDDDPSRYGGKGVQKAVENVSAIEDALIGLSALDQEGLDKAMIALDGTPNKKNLGANAILAVSLATAHAAATSLNLPLYRYLGGPLANVLPVPMMNVINGGAHADNNVDFQEFMIMPVGAPSFKEALRWGAEVFHALAKVLKDKGLATGVGDEGGFAPNLGSNKEALELLLTAIEAAGYKPGEQVALAMDVASSEFYKNGLYTCDGVSHEPAGMIGILADLVSQYPIVSIEDGLQEDDWSNWKTLTQQLGSTVQLVGDDLFVTNPDRLQSGIEQGVGNAVLIKLNQIGTLTETLRTIDLATRSGYRSVISHRSGETEDTTIADLAVATRAGQIKTGSLSRSERIAKYNRLLRIEAALGENALYAGAIGLGPKGR
notes: full length, synthetic codon-optimized gene in pET-42a(+), C-terminal … (8xHis) tag kept, E. coli Arctic Express (DE3); mainly monomer in gel filtration, dimer in PEP crystal, octamer predicted
For the protein B1, the Km came to 61 ± 4 µM, the kcat came out at 7.4 ± 0.1 s⁻¹ and the kcat/Km was determined as 120000 M⁻¹ s⁻¹.
